In PMC3360964 (Molecular Cell, 2012):

How the values were obtained:
Assay in all cases: pull-down
[1] = biological target: ELL2-F, affinity-purified (UniProt O00472 1-640)
[2] = biological target: T1, F-AFF4, wild type, affinity-purified (UniProt Q9UHB7 1-1163)
T1 sequence (looked up): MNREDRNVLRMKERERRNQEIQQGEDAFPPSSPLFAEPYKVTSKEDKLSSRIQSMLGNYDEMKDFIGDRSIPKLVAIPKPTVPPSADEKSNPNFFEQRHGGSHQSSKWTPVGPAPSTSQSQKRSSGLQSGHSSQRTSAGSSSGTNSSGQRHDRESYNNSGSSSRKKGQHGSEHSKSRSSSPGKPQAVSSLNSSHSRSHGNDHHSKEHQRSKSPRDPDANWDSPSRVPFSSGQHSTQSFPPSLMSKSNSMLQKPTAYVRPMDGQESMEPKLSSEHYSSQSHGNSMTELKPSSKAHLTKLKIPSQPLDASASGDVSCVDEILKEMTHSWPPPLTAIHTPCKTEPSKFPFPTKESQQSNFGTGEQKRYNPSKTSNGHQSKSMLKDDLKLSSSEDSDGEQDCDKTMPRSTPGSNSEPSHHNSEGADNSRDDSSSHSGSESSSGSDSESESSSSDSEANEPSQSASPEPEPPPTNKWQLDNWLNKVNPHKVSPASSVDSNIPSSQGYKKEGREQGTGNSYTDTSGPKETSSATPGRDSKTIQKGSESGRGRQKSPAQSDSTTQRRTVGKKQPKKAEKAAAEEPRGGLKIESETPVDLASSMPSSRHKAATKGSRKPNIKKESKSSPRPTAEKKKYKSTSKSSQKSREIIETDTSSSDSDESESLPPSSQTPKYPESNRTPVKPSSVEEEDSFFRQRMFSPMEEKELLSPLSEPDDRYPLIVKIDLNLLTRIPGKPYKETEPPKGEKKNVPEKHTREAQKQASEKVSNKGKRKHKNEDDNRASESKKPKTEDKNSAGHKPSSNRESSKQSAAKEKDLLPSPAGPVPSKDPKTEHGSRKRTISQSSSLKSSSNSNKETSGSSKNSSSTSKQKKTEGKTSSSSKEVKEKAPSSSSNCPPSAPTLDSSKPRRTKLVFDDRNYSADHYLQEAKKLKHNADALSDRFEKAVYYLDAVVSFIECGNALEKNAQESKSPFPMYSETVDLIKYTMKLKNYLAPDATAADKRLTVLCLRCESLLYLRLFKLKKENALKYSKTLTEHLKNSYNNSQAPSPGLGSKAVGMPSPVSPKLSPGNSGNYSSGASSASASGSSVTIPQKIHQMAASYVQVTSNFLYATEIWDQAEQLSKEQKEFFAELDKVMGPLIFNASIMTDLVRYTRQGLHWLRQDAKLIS

[3] = biological target: T2, F-AFF4(Δ301–400), affinity-purified (UniProt Q9UHB7 1-1163, Δ301–400)
T2 sequence (looked up): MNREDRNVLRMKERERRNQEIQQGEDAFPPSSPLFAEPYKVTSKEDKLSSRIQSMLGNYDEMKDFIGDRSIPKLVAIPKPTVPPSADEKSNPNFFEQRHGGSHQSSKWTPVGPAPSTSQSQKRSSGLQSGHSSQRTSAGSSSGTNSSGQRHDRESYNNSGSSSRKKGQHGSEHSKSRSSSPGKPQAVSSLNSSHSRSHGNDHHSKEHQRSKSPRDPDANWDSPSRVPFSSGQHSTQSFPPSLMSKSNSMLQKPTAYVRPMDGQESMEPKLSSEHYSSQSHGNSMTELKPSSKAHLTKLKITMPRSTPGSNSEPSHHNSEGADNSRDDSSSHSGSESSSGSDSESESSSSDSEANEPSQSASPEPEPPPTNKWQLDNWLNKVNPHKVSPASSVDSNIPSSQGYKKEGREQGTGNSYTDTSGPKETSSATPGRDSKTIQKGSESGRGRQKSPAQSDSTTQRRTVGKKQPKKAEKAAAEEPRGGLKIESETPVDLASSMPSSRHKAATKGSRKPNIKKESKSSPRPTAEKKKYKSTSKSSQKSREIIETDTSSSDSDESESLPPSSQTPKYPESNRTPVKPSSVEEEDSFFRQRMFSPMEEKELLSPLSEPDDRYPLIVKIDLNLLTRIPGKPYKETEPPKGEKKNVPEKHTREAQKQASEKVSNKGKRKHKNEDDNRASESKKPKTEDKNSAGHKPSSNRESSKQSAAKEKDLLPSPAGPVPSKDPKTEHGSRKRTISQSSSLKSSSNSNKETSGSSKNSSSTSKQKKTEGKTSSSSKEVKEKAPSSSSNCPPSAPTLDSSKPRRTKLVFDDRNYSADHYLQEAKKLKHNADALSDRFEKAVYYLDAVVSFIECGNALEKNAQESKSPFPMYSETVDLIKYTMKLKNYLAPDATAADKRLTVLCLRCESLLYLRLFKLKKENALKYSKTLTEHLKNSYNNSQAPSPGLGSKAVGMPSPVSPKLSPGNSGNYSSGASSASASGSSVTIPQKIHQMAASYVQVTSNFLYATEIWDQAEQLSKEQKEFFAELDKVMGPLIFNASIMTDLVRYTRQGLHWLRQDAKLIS

ELL2-F, affinity-purified, sequence (O00472 whole entry): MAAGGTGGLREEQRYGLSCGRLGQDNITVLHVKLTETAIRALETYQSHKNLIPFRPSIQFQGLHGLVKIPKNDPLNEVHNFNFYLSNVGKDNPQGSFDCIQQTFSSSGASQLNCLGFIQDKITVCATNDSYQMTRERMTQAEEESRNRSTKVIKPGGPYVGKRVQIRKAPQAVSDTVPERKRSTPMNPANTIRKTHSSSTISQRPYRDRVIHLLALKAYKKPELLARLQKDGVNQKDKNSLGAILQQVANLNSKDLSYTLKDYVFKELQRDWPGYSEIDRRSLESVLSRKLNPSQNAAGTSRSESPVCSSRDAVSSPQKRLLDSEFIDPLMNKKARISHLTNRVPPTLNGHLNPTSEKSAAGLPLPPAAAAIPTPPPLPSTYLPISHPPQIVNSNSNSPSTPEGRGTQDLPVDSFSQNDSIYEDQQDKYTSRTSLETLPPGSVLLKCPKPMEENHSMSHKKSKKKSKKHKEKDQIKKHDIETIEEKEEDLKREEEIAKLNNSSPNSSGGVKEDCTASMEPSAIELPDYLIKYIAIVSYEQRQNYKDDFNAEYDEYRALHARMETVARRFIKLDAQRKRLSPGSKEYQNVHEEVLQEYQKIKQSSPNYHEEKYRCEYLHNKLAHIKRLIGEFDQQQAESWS

binding result [1]: binds
binding result [2]: binds
binding result [3]: binds
B1: HA-Siah1 immobilized on anti-HA beads (enzyme, human, UniProt Q8IUQ4-2 1-313, looked up)
chain: MTGKATPPSLYSWRGVLFTCLPAARTRKRKEMSRQTATALPTGTSKCPPSQRVPALTGTTASNNDLASLFECPVCFDYVLPPILQCQSGHLVCSNCRPKLTCCPTCRGPLGSIRNLAMEKVANSVLFPCKYASSGCEITLPHTEKADHEELCEFRPYSCPCPGASCKWQGSLDAVMPHLMHQHKSITTLQGEDIVFLATDINLPGAVDWVMMQSCFGFHFMLVLEKQEKYDGHQQFFAIVQLIGTRKQAENFAYRLELNGHRRRLTWEATPRSIHEGIATAIMNSDCLVFDTSIAQLFAENGNLGINVTISMC
